{
  "source": "patent US20220023399A1",
  "about": "“BLOOD COMPONENT POTENTIATION OF LYTIC PROTEIN ANTI-BACTERIAL ACTIVITY AND METHODS AND USES THEREOF” (priority 2017, published 2022)",
  "key": {"[1]": {"system": "methicillin-resistant S. aureus (MRSA) strain MW2", "experiment": "Time-kill assay in blood matrices and MHB", "format": "cell-based"}, "[2]": {"system": "S. aureus strain MW2", "experiment": "Synergy time-kill assay", "format": "cell-based", "settings": "human serum"}, "[3]": {"system": "S. aureus NRS 271 (MRSA, LRSA)", "experiment": "Checkerboard assay, additional MRSA strains", "format": "cell-based", "settings": "paired agent not given"}, "[4]": {"system": "S. aureus ATCC 43300 (MRSA)", "experiment": "Checkerboard assay, additional MRSA strains", "format": "cell-based", "settings": "paired agent not given"}, "[5]": {"system": "171 clinical S. aureus isolates (MSSA, MRSA, vancomycin-, linezolid-, daptomycin-resistant)", "experiment": "MIC by broth microdilution in CAMHB vs human serum, 171 clinical isolates"}, "[6]": {"system": "S. aureus HPV 107 (MRSA)", "experiment": "Checkerboard assay, additional MRSA strains", "format": "cell-based", "settings": "paired agent not given"}, "[7]": {"system": "MRSA strain MW2", "experiment": "Rat infective endocarditis model", "format": "in vivo, Sprague-Dawley rats"}, "[8]": {"settings": "medium head missing (human serum)"}},
  "note": "“And” between values parts separate entries of the source, which are not always exact repeats. Identical values can stand only once.",
  "data": [
    {"molecule": "PlySs2 (CF-301): antistaphylococcal lysin from a Streptococcus suis prophage; N-terminal CHAP domain, C-terminal SH3-type binding domain; SEQ ID NO:3 (protein, listed as Streptococcus suis) MTTVNEALNNVRAQVGSGVSVGNGECYALASWYERMISPDATVGLGAGVGWVSGAIGDTISAKNIGSSYNWQANGWTVSTSGPFKAGQIVTLGATPGNPYGHVVIVEAVDGDRLTILEQNYGGKRYPVRNYYSAASYRQQVVHYITPPGTVAQSAPNLAGSRSYRETGTMTVTVDALNVRRAPNTSGEIVAVYKRGESFDYDTVIIDVNGYVWVSYIGGSGKRNYVATGATKDGKRFGNAWGTFK", "values": [
      {"measurement": "minimum sterilizing concentration", "setting": "[1]; MHB", "value": 320, "unit": "µg/mL"},
      {"measurement": "minimum sterilizing concentration", "setting": "[1]; all human blood matrices (whole blood, serum, plasma), sterilizing by 24 hours", "value": 3.2, "unit": "µg/mL"},
      {"measurement": "sterilizing concentration", "setting": "[1]; calf serum", "value": 32, "unit": "µg/mL"},
      {"measurement": "sterilizing concentration", "setting": "[1]; dog serum", "value": 3.2, "unit": "µg/mL"},
      {"measurement": "sterilizing concentration", "setting": "[1]; mouse serum", "value": "> 320", "unit": "µg/mL"},
      {"measurement": "sterilizing concentration", "setting": "[1]; rabbit serum", "value": 3.2, "unit": "µg/mL"},
      {"measurement": "sterilizing concentration", "setting": "[1]; rat serum", "value": 32, "unit": "µg/mL"},
      {"measurement": "difference in sterilizing activity/potency, blood compared to MHB", "setting": "[1]; strain MW2, human blood matrices vs MHB", "value": 100, "unit": "fold"},
      {"measurement": "concentration of each agent in PlySs2 (CF-301) + lysostaphin combination sterilizing at 24 hours", "setting": "[2]", "value": 0.005, "unit": "µg/mL"},
      {"measurement": "minimum concentration demonstrating synergy with daptomycin", "setting": "[2]", "value": 0.025, "unit": "µg/mL"},
      {"measurement": "fold decrease in minimum sterilizing concentration vs single agent", "setting": "[2]; in combination with DAP", "value": 64, "unit": "fold"},
      {"measurement": "ΣFICavg", "setting": "[3]; CAMHB", "value": 0.5},
      {"measurement": "ΣFICmin", "setting": "[3]; CAMHB", "value": 0.38},
      {"measurement": "ΣFICavg", "setting": "[3]; [8]", "value": 0.39},
      {"measurement": "ΣFICmin", "setting": "[3]; [8]", "value": 0.25},
      {"measurement": "ΣFICavg", "setting": "[4]; CAMHB", "value": 0.87},
      {"measurement": "ΣFICmin", "setting": "[4]; CAMHB", "value": 0.5},
      {"measurement": "ΣFICavg", "setting": "[4]; [8]", "value": 0.29},
      {"measurement": "ΣFICmin", "setting": "[4]; [8]", "value": 0.25},
      {"measurement": "MIC Range", "setting": "[5]; MRSA (N 75), CAMHB", "value": "2-128"},
      {"measurement": "MIC Range", "setting": "[5]; MRSA (N 75), human serum", "value": "0.25-2"},
      {"measurement": "MIC Range", "setting": "[5]; MSSA (N 74), CAMHB", "value": "8-32"},
      {"measurement": "MIC Range", "setting": "[5]; MSSA (N 74), human serum", "value": "0.25-1"},
      {"measurement": "MIC Range", "setting": "[5]; Other (N 22: 12 vancomycin-, 5 linezolid-, 5 daptomycin-resistant strains), CAMHB", "value": "0.5-32^"},
      {"measurement": "MIC Range", "setting": "[5]; Other (N 22: 12 vancomycin-, 5 linezolid-, 5 daptomycin-resistant strains), human serum", "value": "0.25-2"},
      {"measurement": "ΣFICavg", "setting": "[6]; CAMHB", "value": 0.64},
      {"measurement": "ΣFICmin", "setting": "[6]; CAMHB", "value": 0.5},
      {"measurement": "ΣFICavg", "setting": "[6]; [8]", "value": 0.44},
      {"measurement": "ΣFICmin", "setting": "[6]; [8]", "value": 0.38},
      {"measurement": "fold lower doses giving comparable efficacy in the rabbit vs the rat model", "setting": "[7]; S. aureus infectious endocarditis models", "value": 111, "unit": "fold"},
      {"measurement": "estimate AUC/MIC ratio required to achieve maximal efficacy", "setting": "[7]; rat IE model, 10 mg/kg in addition to DAP, 3 log10 drop relative to DAP alone", "value": "≥ 0.87"},
      {"measurement": "drop in CFU/g in heart valve vegetation", "setting": "[7]; rat, total dose 10 mg/kg PlySs2 (CF-301) in addition to HTD equivalent of DAP, relative to DAP alone", "value": "~3", "unit": "log 10"},
      {"measurement": "fold higher AUC exposure required for similar bactericidal effect in rats compared to rabbits", "setting": "[7]; rats 10 mg/kg vs rabbits 0.18 mg/kg", "value": "> 20", "unit": "fold"},
      {"measurement": "fold higher dose required for similar bactericidal effect in rats compared to rabbits", "setting": "[7]; rats 10 mg/kg vs rabbits 0.18 mg/kg, in addition to DAP", "value": "~50 fold and > 50 fold"}
    ]}
  ]
}
